# According to US10941182 (Amgen, dated 2021):
# Starred links: 1 amine or outer side, 2 acyl side, 3 side chain; linkers in the order of their positions; H or OH if unused. Non-standard residues stand in square brackets, D forms with d. *: point of attachment. dBip = N[C@H](Cc1ccc(-c2ccccc2)cc1)C(=O)O; Oic = O=C(O)[C@@H]1C[C@@H]2CCCC[C@@H]2N1; Phe(4-Cl) = N[C@@H](Cc1ccc(Cl)cc1)C(=O)O; dPhe(4-Cl) = N[C@H](Cc1ccc(Cl)cc1)C(=O)O; Phe(4-I) = N[C@@H](Cc1ccc(I)cc1)C(=O)O; γGlu = O=C(O)[C@H](CCC(=O)[*:2])N[*:1]; NMeR = CN[C@@H](CCCNC(=N)N)C(=O)O; Tridecanoyl = CCCCCCCCCCCCC(=O)*; hArg = N=C(N)NCCCC[C@H](N)C(=O)O; Cha = N[C@@H](CC1CCCCC1)C(=O)O; NMeL = CN[C@@H](CC(C)C)C(=O)O; Tle = CC(C)(C)[C@H](N)C(=O)O; Nle = CCCC[C@H](N)C(=O)O; Orn = NCCC[C@H](N)C(=O)O; AEEA = NCCOCCOCC(=O)O; BLeu = β-leucine
# T1: rat APJ receptor (rat, UniProt Q9JHG3 1-377)
# T1 sequence (looked up): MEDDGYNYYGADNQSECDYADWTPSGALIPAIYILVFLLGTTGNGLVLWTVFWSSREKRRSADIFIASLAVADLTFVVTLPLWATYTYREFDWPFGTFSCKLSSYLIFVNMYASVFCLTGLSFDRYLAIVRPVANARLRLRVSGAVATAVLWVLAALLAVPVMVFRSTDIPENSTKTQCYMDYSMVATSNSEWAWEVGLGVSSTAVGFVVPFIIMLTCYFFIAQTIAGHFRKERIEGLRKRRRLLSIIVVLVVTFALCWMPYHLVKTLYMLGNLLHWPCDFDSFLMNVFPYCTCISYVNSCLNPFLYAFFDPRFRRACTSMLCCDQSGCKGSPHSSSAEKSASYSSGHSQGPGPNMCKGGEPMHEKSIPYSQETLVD
# T2: human APJ receptor (human, UniProt P35414 1-380)
# T2 sequence (looked up): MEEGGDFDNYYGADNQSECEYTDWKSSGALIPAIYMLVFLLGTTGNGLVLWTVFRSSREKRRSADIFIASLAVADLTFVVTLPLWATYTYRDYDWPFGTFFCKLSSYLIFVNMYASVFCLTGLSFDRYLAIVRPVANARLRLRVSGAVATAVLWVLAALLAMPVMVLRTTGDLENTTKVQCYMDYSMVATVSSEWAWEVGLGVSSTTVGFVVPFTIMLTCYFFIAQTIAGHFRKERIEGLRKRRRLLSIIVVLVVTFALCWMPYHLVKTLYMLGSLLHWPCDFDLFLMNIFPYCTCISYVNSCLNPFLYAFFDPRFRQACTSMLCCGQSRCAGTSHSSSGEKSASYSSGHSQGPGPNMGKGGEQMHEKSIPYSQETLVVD
# B1: Apelin polypeptide SEQ ID NO: 338 (peptide)
# peptide: Tridecanoyl-[γGlu][AEEA][AEEA][Nle]QRP[hArg][Cha]SHKG[Oic][Nle]P[Phe(4-Cl)]-OH
# SMILES: CCCCCCCCCCCCC(=O)N[C@@H](CCC(=O)NCCOCCOCC(=O)NCCOCCOCC(=O)N[C@@H](CCCC)C(=O)N[C@@H](CCC(N)=O)C(=O)N[C@@H](CCCNC(=N)N)C(=O)N1CCC[C@H]1C(=O)N[C@@H](CCCCNC(=N)N)C(=O)N[C@@H](CC1CCCCC1)C(=O)N[C@@H](CO)C(=O)N[C@@H](Cc1c[nH]cn1)C(=O)N[C@@H](CCCCN)C(=O)NCC(=O)N1[C@H](C(=O)N[C@@H](CCCC)C(=O)N2CCC[C@H]2C(=O)N[C@@H](Cc2ccc(Cl)cc2)C(=O)O)C[C@@H]2CCCC[C@@H]21)C(=O)O
# B2: Apelin polypeptide SEQ ID NO: 292 (peptide)
# peptide: Tridecanoyl-[γGlu][AEEA][AEEA][dL][hArg]P[NMeR][Cha]SHKG[Oic][Nle]P[dPhe(4-Cl)]-OH
# SMILES: CCCCCCCCCCCCC(=O)N[C@@H](CCC(=O)NCCOCCOCC(=O)NCCOCCOCC(=O)N[C@H](CC(C)C)C(=O)N[C@@H](CCCCNC(=N)N)C(=O)N1CCC[C@H]1C(=O)N(C)[C@@H](CCCNC(=N)N)C(=O)N[C@@H](CC1CCCCC1)C(=O)N[C@@H](CO)C(=O)N[C@@H](Cc1c[nH]cn1)C(=O)N[C@@H](CCCCN)C(=O)NCC(=O)N1[C@H](C(=O)N[C@@H](CCCC)C(=O)N2CCC[C@H]2C(=O)N[C@H](Cc2ccc(Cl)cc2)C(=O)O)C[C@@H]2CCCC[C@@H]21)C(=O)O
# B3: Apelin polypeptide SEQ ID NO: 442 (peptide)
# peptide: Tridecanoyl-[γGlu][AEEA][AEEA][Tle]RP[NMeR][Cha]SHKG[Oic][Nle]P[Phe(4-Cl)]-OH
# SMILES: CCCCCCCCCCCCC(=O)N[C@@H](CCC(=O)NCCOCCOCC(=O)NCCOCCOCC(=O)N[C@H](C(=O)N[C@@H](CCCNC(=N)N)C(=O)N1CCC[C@H]1C(=O)N(C)[C@@H](CCCNC(=N)N)C(=O)N[C@@H](CC1CCCCC1)C(=O)N[C@@H](CO)C(=O)N[C@@H](Cc1c[nH]cn1)C(=O)N[C@@H](CCCCN)C(=O)NCC(=O)N1[C@H](C(=O)N[C@@H](CCCC)C(=O)N2CCC[C@H]2C(=O)N[C@@H](Cc2ccc(Cl)cc2)C(=O)O)C[C@@H]2CCCC[C@@H]21)C(C)(C)C)C(=O)O
# B4: Apelin polypeptide SEQ ID NO: 314 (peptide)
# peptide: Tridecanoyl-[γGlu][AEEA][AEEA][Nle][dR]Q[hArg]P[dR][NMeL]SHKG[Oic][Phe(4-I)]P[dBip]-OH
# SMILES: CCCCCCCCCCCCC(=O)N[C@@H](CCC(=O)NCCOCCOCC(=O)NCCOCCOCC(=O)N[C@@H](CCCC)C(=O)N[C@H](CCCNC(=N)N)C(=O)N[C@@H](CCC(N)=O)C(=O)N[C@@H](CCCCNC(=N)N)C(=O)N1CCC[C@H]1C(=O)N[C@H](CCCNC(=N)N)C(=O)N(C)[C@@H](CC(C)C)C(=O)N[C@@H](CO)C(=O)N[C@@H](Cc1c[nH]cn1)C(=O)N[C@@H](CCCCN)C(=O)NCC(=O)N1[C@H](C(=O)N[C@@H](Cc2ccc(I)cc2)C(=O)N2CCC[C@H]2C(=O)N[C@H](Cc2ccc(-c3ccccc3)cc2)C(=O)O)C[C@@H]2CCCC[C@@H]21)C(=O)O
# B5: Apelin polypeptide SEQ ID NO: 332 (peptide)
# peptide: Tridecanoyl-[γGlu][AEEA][AEEA][Nle][dR]Q[hArg]P[dR][NMeL]AAKG[Oic][Phe(4-I)]P[dBip]-OH
# SMILES: CCCCCCCCCCCCC(=O)N[C@@H](CCC(=O)NCCOCCOCC(=O)NCCOCCOCC(=O)N[C@@H](CCCC)C(=O)N[C@H](CCCNC(=N)N)C(=O)N[C@@H](CCC(N)=O)C(=O)N[C@@H](CCCCNC(=N)N)C(=O)N1CCC[C@H]1C(=O)N[C@H](CCCNC(=N)N)C(=O)N(C)[C@@H](CC(C)C)C(=O)N[C@@H](C)C(=O)N[C@@H](C)C(=O)N[C@@H](CCCCN)C(=O)NCC(=O)N1[C@H](C(=O)N[C@@H](Cc2ccc(I)cc2)C(=O)N2CCC[C@H]2C(=O)N[C@H](Cc2ccc(-c3ccccc3)cc2)C(=O)O)C[C@@H]2CCCC[C@@H]21)C(=O)O
# B6: Apelin polypeptide SEQ ID NO: 347 (peptide)
# peptide: Tridecanoyl-[γGlu][AEEA][AEEA][Nle]QRP[hArg][Cha]AAKG[Oic][Nle]P[Phe(4-Cl)]-OH
# SMILES: CCCCCCCCCCCCC(=O)N[C@@H](CCC(=O)NCCOCCOCC(=O)NCCOCCOCC(=O)N[C@@H](CCCC)C(=O)N[C@@H](CCC(N)=O)C(=O)N[C@@H](CCCNC(=N)N)C(=O)N1CCC[C@H]1C(=O)N[C@@H](CCCCNC(=N)N)C(=O)N[C@@H](CC1CCCCC1)C(=O)N[C@@H](C)C(=O)N[C@@H](C)C(=O)N[C@@H](CCCCN)C(=O)NCC(=O)N1[C@H](C(=O)N[C@@H](CCCC)C(=O)N2CCC[C@H]2C(=O)N[C@@H](Cc2ccc(Cl)cc2)C(=O)O)C[C@@H]2CCCC[C@@H]21)C(=O)O
# B7: Apelin polypeptide SEQ ID NO: 320 (peptide)
# peptide: Tridecanoyl-[γGlu][AEEA][AEEA][Nle][dR]Q[hArg]P[dR][NMeL]AHKG[Oic][Phe(4-I)]P[dBip]-OH
# SMILES: CCCCCCCCCCCCC(=O)N[C@@H](CCC(=O)NCCOCCOCC(=O)NCCOCCOCC(=O)N[C@@H](CCCC)C(=O)N[C@H](CCCNC(=N)N)C(=O)N[C@@H](CCC(N)=O)C(=O)N[C@@H](CCCCNC(=N)N)C(=O)N1CCC[C@H]1C(=O)N[C@H](CCCNC(=N)N)C(=O)N(C)[C@@H](CC(C)C)C(=O)N[C@@H](C)C(=O)N[C@@H](Cc1c[nH]cn1)C(=O)N[C@@H](CCCCN)C(=O)NCC(=O)N1[C@H](C(=O)N[C@@H](Cc2ccc(I)cc2)C(=O)N2CCC[C@H]2C(=O)N[C@H](Cc2ccc(-c3ccccc3)cc2)C(=O)O)C[C@@H]2CCCC[C@@H]21)C(=O)O
# B8: Apelin polypeptide SEQ ID NO: 557 (peptide)
# peptide: Tridecanoyl-[γGlu][AEEA][AEEA][Tle][hArg]P[dR][Cha]SHKG[Oic][Nle]P[Phe(4-Cl)]-OH
# SMILES: CCCCCCCCCCCCC(=O)N[C@@H](CCC(=O)NCCOCCOCC(=O)NCCOCCOCC(=O)N[C@H](C(=O)N[C@@H](CCCCNC(=N)N)C(=O)N1CCC[C@H]1C(=O)N[C@H](CCCNC(=N)N)C(=O)N[C@@H](CC1CCCCC1)C(=O)N[C@@H](CO)C(=O)N[C@@H](Cc1c[nH]cn1)C(=O)N[C@@H](CCCCN)C(=O)NCC(=O)N1[C@H](C(=O)N[C@@H](CCCC)C(=O)N2CCC[C@H]2C(=O)N[C@@H](Cc2ccc(Cl)cc2)C(=O)O)C[C@@H]2CCCC[C@@H]21)C(C)(C)C)C(=O)O
# B9: Apelin polypeptide SEQ ID NO: 326 (peptide)
# peptide: Tridecanoyl-[γGlu][AEEA][AEEA][Nle][dR]Q[hArg]P[dR][NMeL]SAKG[Oic][Phe(4-I)]P[dBip]-OH
# SMILES: CCCCCCCCCCCCC(=O)N[C@@H](CCC(=O)NCCOCCOCC(=O)NCCOCCOCC(=O)N[C@@H](CCCC)C(=O)N[C@H](CCCNC(=N)N)C(=O)N[C@@H](CCC(N)=O)C(=O)N[C@@H](CCCCNC(=N)N)C(=O)N1CCC[C@H]1C(=O)N[C@H](CCCNC(=N)N)C(=O)N(C)[C@@H](CC(C)C)C(=O)N[C@@H](CO)C(=O)N[C@@H](C)C(=O)N[C@@H](CCCCN)C(=O)NCC(=O)N1[C@H](C(=O)N[C@@H](Cc2ccc(I)cc2)C(=O)N2CCC[C@H]2C(=O)N[C@H](Cc2ccc(-c3ccccc3)cc2)C(=O)O)C[C@@H]2CCCC[C@@H]21)C(=O)O
# B10: Apelin polypeptide SEQ ID NO: 342 (peptide)
# peptide: Tridecanoyl-[γGlu][AEEA][AEEA][Nle]QRP[hArg][Cha]SAKG[Oic][Nle]P[Phe(4-Cl)]-OH
# SMILES: CCCCCCCCCCCCC(=O)N[C@@H](CCC(=O)NCCOCCOCC(=O)NCCOCCOCC(=O)N[C@@H](CCCC)C(=O)N[C@@H](CCC(N)=O)C(=O)N[C@@H](CCCNC(=N)N)C(=O)N1CCC[C@H]1C(=O)N[C@@H](CCCCNC(=N)N)C(=O)N[C@@H](CC1CCCCC1)C(=O)N[C@@H](CO)C(=O)N[C@@H](C)C(=O)N[C@@H](CCCCN)C(=O)NCC(=O)N1[C@H](C(=O)N[C@@H](CCCC)C(=O)N2CCC[C@H]2C(=O)N[C@@H](Cc2ccc(Cl)cc2)C(=O)O)C[C@@H]2CCCC[C@@H]21)C(=O)O
# Target: T1, rat APJ receptor
# Assay: cell-based or functional assay
row,EC50 Rat APJ Receptor (GTPγS assay) [nM],Binder
1,0.766,B1
2,6.68,B2
3,2.16,B3
4,6.81,B4
5,0.31,Tridecanoyl-[γGlu][AEEA][AEEA][Orn]F[hArg][hArg][BLeu][hArg]P[hArg][Cha]SHKG[Oic][Nle]P[Phe(4-Cl)]-OH [Apelin polypeptide SEQ ID NO: 307]
6,50.5,B5
7,2.13,B6
8,37.7,B7
9,10.4,B8
10,17.8,B9
11,0.684,B10

# Target: T2, human APJ receptor
# Assay: cell-based or functional assay
row,EC50 Human APJ Receptor (GTPγS assay) [nM],Binder
1,0.56,B1
2,5.78,B2
3,2,B3
4,2.77,B4
5,0.305,Tridecanoyl-[γGlu][AEEA][AEEA][Orn]F[hArg][hArg][BLeu][hArg]P[hArg][Cha]SHKG[Oic][Nle]P[Phe(4-Cl)]-OH [Apelin polypeptide SEQ ID NO: 307]
6,40,B5
7,1.89,B6
8,17.9,B7
9,6.12,B8
10,14.8,B9
11,0.803,B10
